Experimental data reported in IntAct's records for PubMed 20704562.

B1: Transmembrane protease serine 6 (Homo sapiens), Q8IU80 (parent)
chain: MLLLFHSKRMPVAEAPQVAGGQGDGGDGEEAEPEGMFKACEDSKRKARGYLRLVPLFVLLALLVLASAGVLLWYFLGYKAEVMVSQVYSGSLRVLNRHFSQDLTRRESSAFRSETAKAQKMLKELITSTRLGTYYNSSSVYSFGEGPLTCFFWFILQIPEHRRLMLSPEVVQALLVEELLSTVNSSAAVPYRAEYEVDPEGLVILEASVKDIAALNSTLGCYRYSYVGQGQVLRLKGPDHLASSCLWHLQGPKDLMLKLRLEWTLAECRDRLAMYDVAGPLEKRLITSVYGCSRQEPVVEVLASGAIMAVVWKKGLHSYYDPFVLSVQPVVFQACEVNLTLDNRLDSQGVLSTPYFPSYYSPQTHCSWHLTVPSLDYGLALWFDAYALRRQKYDLPCTQGQWTIQNRRLCGLRILQPYAERIPVVATAGITINFTSQISLTGPGVRVHYGLYNQSDPCPGEFLCSVNGLCVPACDGVKDCPNGLDERNCVCRATFQCKEDSTCISLPKVCDGQPDCLNGSDEEQCQEGVPCGTFTFQCEDRSCVKKPNPQCDGRPDCRDGSDEEHCDCGLQGPSSRIVGGAVSSEGEWPWQASLQVRGRHICGGALIADRWVITAAHCFQEDSMASTVLWTVFLGKVWQNSRWPGEVSFKVSRLLLHPYHEEDSHDYDVALLQLDHPVVRSAAVRPVCLPARSHFFEPGLHCWITGWGALREGGPISNALQKVDVQLIPQDLCSEVYRYQVTPRMLCAGYRKGKKDACQGDSGGPLVCKALSGRWFLAGLVSWGLGCGRPNYFGVYTRITGVISWIQQVVT
partner: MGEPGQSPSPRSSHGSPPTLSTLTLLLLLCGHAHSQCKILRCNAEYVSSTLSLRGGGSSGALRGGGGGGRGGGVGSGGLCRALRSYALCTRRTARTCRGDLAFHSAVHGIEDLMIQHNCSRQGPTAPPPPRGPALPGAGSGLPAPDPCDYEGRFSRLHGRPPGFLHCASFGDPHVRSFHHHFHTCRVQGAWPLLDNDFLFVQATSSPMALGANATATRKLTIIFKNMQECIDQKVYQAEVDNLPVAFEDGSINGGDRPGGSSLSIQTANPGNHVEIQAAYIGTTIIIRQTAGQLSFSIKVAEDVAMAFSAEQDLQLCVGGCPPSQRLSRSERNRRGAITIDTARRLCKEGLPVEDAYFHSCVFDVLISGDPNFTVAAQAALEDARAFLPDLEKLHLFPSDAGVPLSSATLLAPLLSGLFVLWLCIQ

Variants of: B1
Conditions: with rgmc_human HJV

Variant | effect of a mutation on the interaction
Y141C | with no effect
